Data reported in paper PMC3536711, “Directed Evolution of a Model Primordial Enzyme Provides Insights into the Development of the Genetic Code” (PLoS Genetics, 2013).

Molecular target: 9-CM, simplified chorismate mutase composed of only nine different amino acids
Test: SEC; size-exclusion column after Ni-NTA affinity purification; dimer peak (major peak around 170 mL) isolated for each sample; small fraction of aggregates in the mutant proteins

stoichiometry N: 2
Substance: 9-CM, simplified chorismate mutase composed of only nine different amino acids (enzyme)
